Experiments:
[1] = Enzyme assay: conversion of FPP to sesquiterpenes by recombinant sesquiterpene synthase, GC / GC-MS analysis; assay type: biochemical; settings: FPP as substrate; for main (major) sesquiterpene product formed: crude protein extract from E. coli expressing the recombinant synthase, GC-MS and retention index
Procedure: In a standard protein expression experiment, the expression plasmids containing the sesquiterpene synthase cDNAs as well as the empty plasmid (for negative control) were transformed into the BL21(DE3) or the BL21 STAR™ (DE3) E. coli cells (Novagen). Single colonies of transformed E. coli were used to inoculate 5 ml LB medium. After 5 to 6 hours of incubation at 37° C., the cultures were transferred to a 20° C. incubator and left 1 hour for equilibration. Expression of the protein was then induced by addition of 0.5 mM IPTG and the culture incubated over-night at 20° C. The next day, the cells were collected by centrifugation, resuspended in 0.5 ml Extraction Buffer (50 mM MOPSO pH 7, 5 mM DTT, 10% glycerol) and sonicated 3 times 30 s. The cell debris were sedimented by centrifugation 30 min at 18,000 g and the supernatant containing the soluble proteins was recovered. The expression of the sesquiterpene synthases was evaluated by separation of the protein extract on a SDS-PAGE, staining with coomassie blue and comparison to protein extract obtained from cells transformed with the empty plasmid.
The enzymatic assays were performed in Teflon sealed glass tubes using 50 to 100 μl of protein extract in a final volume of 1 mL Extraction Buffer supplemented with 15 mM MgCl2 and 100 to 250 μM FPP (Sigma). The medium was overlaid with 1 ml pentane and the tubes incubated over-night at 30° C. The pentane phase, containing the sesquiterpenes, was recovered and the medium extract with a second volume of pentane. The combined pentane fractions were concentrated under nitrogen and analyzed by Gas Chromatography on a on a Hewlett-Packard 6890 Series GC system using a 0.25 mm inner diameter by 30 m SPB-1 (Supelco) capillary column. The carrier gas was He at constant flow of 1.6 ml/min. Injection was done in splitless mode with the injector set at 200° C. and the oven programmed from 100° C. (0 min hold) at 7.5° C./min to 200° C. (0 min hold) followed by 20° C./min to 280° C. (2 min hold). Detection was made with a flame ionization detector. Compound identification was based on retention time identity with authentic standards when available. For confirmation of the products identities, samples were analyzed by combined capillary GC-MS using a Hewlett-Packard 6890 GC-quadrupole mass selective detector system, equipped with a 0.25 mm inner diameter by 30 m SPB-1 (Supelco) capillary column. The oven was programmed from 80° C. (0 min hold) to 280° C. at 7° C. at a constant flow of 1.5 ml/min He. The spectra were recorded at 70 eV with an electron multiplier voltage of 2200V. Retention time of the enzyme products were compared to the retention time of authentic standard, or the Kovats retention index was calculated and compared to published data (Joulain, D., and König, W. A. The Atlas of Spectral Data of Sesquiterpene Hydrocarbons, EB Verlag, Hamburg, 1998).
For the biochemical characterization of the sesquiterpene synthases for which the full-length cDNA was isolated, the cDNA was ligated into appropriate expression plasmids. This plasmid were used to transform E coli cells and after expression of the recombinant proteins, the E coli proteins were extracted and used to evaluate the biochemical conversion of FPP to sesquiterpene compounds (see Examples 5 and 6).

BL21 (DE3) E. coli cells = assay: In vivo sesquiterpene production assay in E. coli from the endogenous FPP pool; assay type: cell-based; settings: E. coli cells expressing the synthase, 24 hours after 1 mM IPTG, pentane extract, GC / GC-MS; none with empty plasmid
Procedure: Experiments were performed using E. coli, to test the ability of the patchoulol synthase to synthesise, in vivo, sesquiterpenes from the endogenous FPP pool. Typical experiments for evaluation of in vivo sesquiterpene production are performed as follows. The expression plasmid containing the sesquiterpene synthase cDNA are transformed in BL21 (DE3) E. coli cells. Single colonies of transformed cells are used to inoculate 5 mL LB medium supplemented with the appropriate antibiotics. After 5 to 6 hours of incubation at 37° C., the culture were use to inoculate 100 ml TB medium supplemented with the appropriate antibiotics and the culture was incubated for 2 hours at 20° C. in a 250 mL shake flask. After 2 hours incubation, expression of the protein was induced by the addition of 1 mM IPTG. The cultures were left 24 hours and were then directly extracted twice with one volume of pentane. The two solvent fractions were recovered, combined and concentrated to 0.5 mL prior to GC-MS analysis. […] Patchoulol could be clearly detected by GC analysis of the culture extract, and no patchoulol was detected with cells transformed with the empty plasmid. The identity of the product could be confirmed by GC-MS, but the amount of sesquiterpene produced was relatively low and estimation of the quantities was not possible.

[2] = estimated by GC (flame ionization detection)

B1: PatTpsB15: another recombinant (−)-germacrene D synthase from patchouli, cDNA SEQ ID NO:4 (protein)
chain: MDLNEITSSSRPLANYHPNVWGDRFLLHEPEFTCQAGEKQLVEELKEEVRRELKEASNDYLRQLKMVDAIQRLGIEYLFEEEIDEALRNLLAKFENYCKDNHDMYATALSFRLLRQHGYKVSCEVFDKFKDGEDGFKVEEVMAVLELFEATHMRIHGEDVLDQAFVFTRNYLQSIHATLSNPIAKQVHNALNGYSCRRGMPRIEARKYIPIYEEYGCHHKALLKLAKLDFNLLQSMHKRELTQLYRWWKDLEMPTKLPYIRDRLVETYFWDMGFYFEPQYALARNILVKVQCLVSIFDDTFDAYGAFKELQLFKDAIDRWSISCLDELPEYMQIIYKLVLDVFEEIESHMIKQGTSYRLDYAREAIKIVIGGYFDEAKWREEEYKPRMEEYMKVATKSAAYLTLIIVSFVGMKNDIATPQAFQWVLSEPQIITASLALARLSNDLVGIEFEKERKYIATAVELYEEEHKVSKEEAVLELRHETESAWKEINEALLEPTTFATPILDRILNSARVLEVFYDKTDRYTHVDLELQNIIAQLYIHPIP
modifications: Pogostemon cablin
[1]
  main (major) sesquiterpene product formed: (−)-germacrene D
[1]; crude protein extract
  sesquiterpene synthase activity in recombinant E. coli protein extract: relatively good metabolization of FFP

B2: PatTps177: recombinant patchoulol synthase from patchouli, cDNA SEQ ID NO:5 (protein)
chain: MELYAQSVGVGAASRPLANFHPCVWGDKFIVYNPQSCQAGEREEAEELKVELKRELKEASDNYMRQLKMVDAIQRLGIDYLFVEDVDEALKNLFEMFDAFCKNNHDMHATALSFRLLRQHGYRVSCEVFEKFKDGKDGFKVPNEDGAVAVLEFFEATHLRVHGEDVLDNAFDFTRNYLESVYATLNDPTAKQVHNALNEFSFRRGLPRVEARKYISIYEQYASHHKGLLKLAKLDFNLVQALHRRELSEDSRWWKTLQVPTKLSFVRDRLVESYFWASGSYFEPNYSVARMILAKGLAVLSLMDDVYDAYGTFEELQMFTDAIERWDASCLDKLPDYMKIVYKALLDVFEEVDEELIKLGAPYRAYYGKEAMKYAARAYMEEAQWREQKHKPTTKEYMKLATKTCGYITLIILSCLGVEEGIVTKEAFDWVFSRPPFIEATLIIARLVNDITGHEFEKKREHVRTAVECYMEEHKVGKQEVVSEFYNQMESAWKDINEGFLRPVEFPIPLLYLILNSVRTLEVIYKEGDSYTHVGPAMQNIIKQLYLHPVPY
modifications: Pogostemon cablin
BL21 (DE3) E. coli cells
  in vivo production of patchoulol from endogenous FPP: produced patchoulol
[1]; estimated by GC (FID), detected as the thermal rearrangement product β-element
  amount of (+)-germacrene A among sesquiterpenes produced: 1.6%
[1]; [2]
  amount of (Z,E)-α-farnesene among sesquiterpenes produced: 1.35%
  amount of (trans)-alpha-farnesene among sesquiterpenes produced: 3%
  amount of (−)-patchoulol among sesquiterpenes produced: 39.1%
  amount of alpha-guaiene among sesquiterpenes produced: 14%
  amount of alpha-humulene among sesquiterpenes produced: 1.1%
  amount of seychellene among sesquiterpenes produced: 4%
  amount of trans-β-caryophyllene among sesquiterpenes produced: 4.5%
  amount of trans-β-farnesene among sesquiterpenes produced: 3%
  amount of α-bulnesene among sesquiterpenes produced: 8.6%
  amount of α-patchoulene among sesquiterpenes produced: 8.9%
  amount of γ-patchoulene among sesquiterpenes produced: 2.5%
  amount of δ-patchoulene among sesquiterpenes produced: 2.1%
[1]
  main (major) sesquiterpene product formed: (−)-patchoulol
[1]; crude protein extract, GC-MS
  number of other sesquiterpenes produced besides the main product: at least 18

B3: PatTpsA: recombinant γ-curcumene synthase from patchouli (Pogostemon cablin), cDNA SEQ ID NO:1 (protein)
chain: MAAFTANAVDMRPPVITIHPRSKDIFSQFSLDDKLQKQYAQGIEALKEEARSMLMAAKSAKVMILIDTLERLGLGYHFEKEIEEKLEAIYKKEDGDDYDLFTTALRFRLLRQHQRRVPCSVFDKFMNKEGKFEEEPLISDVEGLLSLYDAAYLQIHGEHILQEALIFTTHHLTRIEPQLDDHSPLKLKLNRALEFPFYREIPIIYAHFYISVYERDDSRDEVLLKMAKLSYNFLQNLYKKELSQLSRWWNKLELIPNLPYIRDSVAGAYLWAVALYFEPQYSDVRMAIAKLIQIAAAVDDTYDNYATIREAQLLTEALERLNVHEIDTLPDYMKIVYRFVMSWSEDFERDATIKEQMLATPYFKAEMKKLGRAYNQELKWVMERQLPSFEEYMKNSEITSGVYIMFTVISPYLNSATQKNIDWLLSQPRLASSTAIVMRCCNDLGSNQRESKGGEVMTSLDCYMKQHGASKQETISKFKLIIEDEWKNLNEEWAATTCLPKVMVEIFRNYARIAGFCYKNNGDAYTSPKIVQQCFDALFVNPLRI
modifications: Pogostemon cablin
[1]
  main (major) sesquiterpene product formed: γ-curcumene
[1]; crude protein extract
  sesquiterpene synthase activity in recombinant E. coli protein extract: low

B4: PatTpsCF2: recombinant (+)-germacrene A synthase from patchouli, cDNA SEQ ID NO:3 (protein)
chain: MAVQISETVRPFANFSPNPSLWGDQFINHKSKTQQISRIYLEEIEGLKNEVKCMLTSTPEGKMADTVNLIDTLERLGVSYHFEKEIEEKMKHLFNLIKADNYKDHEGCDLYTDALHFRLFRQHGYPISSGIFNKWMDGNGKFKESIKSDAKGLLSLYEACCLRTHGDTLLDEALVFATASLKSMAANLASPLRKQVEHALFQHLHFGIPRVEARHFITFYEEEEHKNEMLLRFAKLDFNALQALHKEELSEISKWWKDLDLISKLPYARDRVVESYFWAVGVYYQPKYSRARIMLTKTIAMTAILDDTYDSYGTLEELDVLTKAIERWDIKEINGLPEYIKGFYKQVLKLYQQLEEELAKEGRSYAVYYAIEACKELARSYAVEAKWFKKGYLPGFEEYLINSLVTSTAGYLNIISFFGVESVTKEDFEWFSKKPRIAVATQIITRVIDDIATYEVEKEKGQSATGIDCYMKEHGVSKEKAMQRFYEMSTNAWKDINEEGLSWPSSFSRDIFVQLRNFSRMVDVTYGKNEDGYSKPEKILKPLIIALFVDQIKL
modifications: Pogostemon cablin
[1]
  main (major) sesquiterpene product formed: (+)-germacrene A
[1]; crude protein extract
  sesquiterpene synthase activity in recombinant E. coli protein extract: easily detected

B5: PatTpsBF2: recombinant (−)-germacrene D synthase from patchouli, cDNA SEQ ID NO:2 (protein)
chain: MELKNQSVAIISSNASRPLAHYHPDVWGDRFLLYKPNPSSEAGQKPVIEELKQQVRSELKEASNDYMRQLKMVDAIQRLGIESLFEEDIDNALKNLSENFDDYCKDKHDLYAIALSFRLLRQHGYRISCDVFDKLKDGEDGFKVPPSDEALAVVELLEATHLRIHGEVVLDRAFVFARIHLESIEANLNNPVAKQVHNALYGYSNRRGMQQVEARKYIPIYEQYASHHQGLLKLATLNFNLQQTMHKRELSELSRWYRDLEVPTMLPFARQRLVETYFWDAGVVFEPENDVARMILVKVQCLISFLDDTFDAYGSFEELQLFTDAINTWDVSCLDQLPDYMKIIYKALLGVFEVIEKLMIKQGTLYRLNYAKEAMKIVVGGYFVEAKWREEKSKPTTQEYMQVATKSAGYMTLIITSFLGMEANIATKEAFDWVLSEPDVMKAAITLARLTNDIVGIELEKERKHIATAVEVYEDEHKLSMQEAMVEIKNQIESGWKTINEAFLRPTKFPTPILYRILNYCRVLEVIYDKSDRYTHVDPALQDIIKQLYIHPIP
modifications: Pogostemon cablin
[1]
  main (major) sesquiterpene product formed: (−)-germacrene D
[1]; crude protein extract
  sesquiterpene synthase activity in recombinant E. coli protein extract: could be detected

From US8058046B2, “Sesquiterpene synthases from patchouli” (Firmenich SA, priority 2003, dated 2011)
